US20240352134A1 (NANJING IMMUNOPHAGE BIOTECH, published 2024)
Where a chain is given by its changes, count along the chain named.

B1: 3F11hz2 (antibody, V domains shown)
VH: EVQLVESGGGLVQPGGSLKLSCAASGFSFNTYAMNWVRQASGKGLEWVGRIRSKSNYYATYYAASVKGRFTISRDDSKNTAYLQMNSLKTEDTAVYYCVRGRELGDYYAMDYWGQGTLVTVSS
VL: DIVMTQSPLSLPVTPGEPASISCRSSKSLLHSNGNTYLDWFLQKPGQSPQLLIYRMSNRASGVPDRFSGSGSGTDFTLKISRVEAEDVGVYYCMQHLEYPFTFGQGTKLEIK
notes: Humanized variant of 3F11
B2: 3O20hz3 (antibody, V domains shown)
VH: EVQLVESGGGLVQPGGSLKLSCATSGFSFNAYAMHWVRQASGKGLEWVGRIRSKSNNYATAYAASVKGRFTISRDDSKTTLYLQMNSLKTEDTAVYYCVRGGYHGNSAYFDVWGQGTLVTVSS
VL: B1 VL with N33Q, M94L
notes: Humanized variant of 3O20
B3: 3O20hz1 (antibody, V domains shown)
VH: B2 VH with T24A, T79N, L81A
VL: B1 VL with F41Y, M94L
notes: Humanized variant of 3O20
B4: 4D24 (antibody, V domains shown)
VH: EVQLVESGGGLVQPKGSLKLSCAASGFSFNPYAMNWVRQSPGKGLEWVARIRSKSNNYATYYADSVKDRFTISRDDSESMLYLQMNNLKTEDTAMYYCVRQGWVKRYFDVWGTGTTVTVSS
VL: GNVLTQSPAIMSASPGEKVTMTCSASSSGTYMHWYQQKSTTSPKLWIYDTSKLASGVPGRFSGSGSGNSYSLTISSMEAEDIATYYCFQGSGYPLTFGSGTKLEIK
notes: Mouse hybridoma monoclonal antibody
B5: 101E4 (antibody, V domains shown)
VH: EVQLVESGGGLVQPKGSLKLSCAASGFSFNPYAMNWVRQGPGKGLEWVARIRSKSNNYATYYADSVKDRFTISRDDSENILYLQMNNLKTEDTAMYYCVRDYYGGRSSIGMDYWGHGTSVTVSS
VL: DIVMTQAAPSVPVTPGESVSISCRSSKSLLHSNGNTYLYWFLQRPGQSPQLLIYRMSNLASGVPDRFSGSGSGTAFTLRISRVEAEDVGVYYCLQHLEYPFTFGGGTKLELK
notes: Mouse hybridoma monoclonal antibody (SJL mice); detected with anti-mouse IgG
B6: 118H1 (antibody, V domains shown)
VH: B5 VH with G40A, V48I, T60A, N86K, K89I, G105T, S107P, H116R
VL: B5 VL with V3A, P12F, K27Q, Q47R, A75G, L94M, G105A
notes: Mouse hybridoma monoclonal antibody; also called 1181H1
B7: 3F11 (antibody, V domains shown)
VH: EVQLVESGGGLVQPKGSLKLSCAASGFSFNTYAMNWVRQAPGKGLEWVARIRSKSNYYATYYADSVKDRFTISRDDSESMLYLQMNNLKTEDTAMYYCVRGRELGDYYAMDYWGQGTSVTVSS
VL: B5 VL with D65N, L94M, G105S, L111I
notes: as for B4
B8: 3F6 (antibody, V domains shown)
VH: EVQFVESGGGLVQPKGSLKLSCAASGFSFNTYAMNWVRQAPGKGLEWVARIRTKSNNYATHYADSVKDRFIVSRDDSENILYLQMNNLKTEDTGMYYCVRGGNGIYGRNAMDNWGQGTSVTVSS
VL: B5 VL with T14S, N33S, L94M, L111I
notes: as for B4
B9: 4M13 (antibody, V domains shown)
VH: B7 VH with I51M, Y57N, R102K, E103D, L104T, G105S, D106G, Y107S, T120S
VL: B5 VL with Q50H, R82K, A85T, L94M, G105S, L111I
notes: as for B4
B10: 3O20 (antibody, V domains shown)
VH: B2 VH with G15K, H35N, S41P, A61Y, A64D, T80I, S87T, V95I, Q115T, L118S
VL: B5 VL with G105S, L111I
notes: as for B4
B11: 4G19 (antibody, V domains shown)
VH: B8 VH with K67T, N79S, I80M, L81T, A110T
VL: B5 VL with A7T, T14S, N33S, L94M, L111I, K112Q
notes: as for B4
B12: 103G4 (antibody, V domains shown)
VH: B5 VH with Q13R, M34L, G40A, R100K, G105T, S107P, H116Q
VL: B5 VL with K27R, Q50H, L94M, G105A
notes: as for B4
B13: 2L15 (antibody, V domains shown)
VH: B7 VH with Y57N, D75A, R102K, E103D, L104I, G105S, D106V, Y107S
VL: B5 VL with L30Q, A85T, L94M, G105S, L111I
notes: as for B4
B14: 172E7 (antibody, V domains shown)
VH: EVQLQQSGPVLVKPGASVKMSCKASGYTFTDNYMNWMKQSHGKTLEWIGVINPYNGVTRYNQKFRDKATLTVDKSSSTAYMDLNSLTSEDSAVYYCSNSLSWGPGTSLTVSS
VL: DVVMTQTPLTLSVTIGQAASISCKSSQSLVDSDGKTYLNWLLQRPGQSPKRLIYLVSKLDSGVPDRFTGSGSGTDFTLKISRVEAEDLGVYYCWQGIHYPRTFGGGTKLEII
notes: as for B4
B15: 170G6 (antibody, V domains shown)
VH: B14 VH with M37V, T44S, D66G, V72A, Y80F, S107T
VL: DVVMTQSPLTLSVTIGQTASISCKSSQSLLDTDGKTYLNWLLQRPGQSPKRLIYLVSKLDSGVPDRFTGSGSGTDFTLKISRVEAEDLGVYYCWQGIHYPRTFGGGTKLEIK
notes: as for B4
B16: 1G17 (antibody, V domains shown)
VH: QVQLQQSGAELVRPGASVTLSCKASGYTFADYEMHWVKQTPVLGLEWIGAIDPETGRTAYNQKFKFKATLTADRSSSTAYMELRSLTSEDSAVYYCTRRAYWGGWGQGTTLTVSS
VL: DVVMTQTPLSLPVSLGDQASISCRSSQSLVHSSGNTYLHWYLQKPGQSPKLLIYKVSNRFSGVPDRFSGSGSGTDFTLKISRVEAEDLGVYFCSQSTHVPYTFGGGTKLEIK
notes: as for B4
B17: 84B4 (antibody, V domains shown)
VH: EVQLQQSGPVLVKPGASVKMSCKASGFTITDYYFNWVKQSHGKSLEWIGIINPYNGVARYKQKFKGKATLTVDKSSSTVYLEFSGLTSEDSAVYYCVRFVYGTTYDYAMDYWGQGTSVTVSS
VL: B16 VL with V3L, L29I, S33N, H39E, L42V, F92Y, S94F, S96G, T97S, Y101P
notes: as for B4
B18: 2P15 (antibody, V domains shown)
VH: B7 VH with T31A, I51M, G101Q, R102T, E103Y, L104G, G105S, D106K, Y107D
VL: B16 VL with S33N, L38F, Y101F, G105S
notes: as for B4
B19: 3C11 (antibody, V domains shown)
VH: EFQLQQSGPELVKPGASVKISCKTSGYSFTDYNINWVKQSNGKSLEWIGLINPNHGTTKSNQKFKGKATLTVDQSSSTAYMQLSSLTSEDSAVYYCARHDYDGAYWGQGTLVTVSA
VL: B16 VL with V30I, S33N, V56I, H98R, V99A, Y101W
notes: as for B4

molecular target: T1, human CCR8 (human, UniProt P51685 1-355); assay: FACS on human CCR8-expressing 293F cells
T1 construct: whole, on cells; also called hCCR8; C-C Motif Chemokine Receptor 8
T1 sequence (P51685 whole entry): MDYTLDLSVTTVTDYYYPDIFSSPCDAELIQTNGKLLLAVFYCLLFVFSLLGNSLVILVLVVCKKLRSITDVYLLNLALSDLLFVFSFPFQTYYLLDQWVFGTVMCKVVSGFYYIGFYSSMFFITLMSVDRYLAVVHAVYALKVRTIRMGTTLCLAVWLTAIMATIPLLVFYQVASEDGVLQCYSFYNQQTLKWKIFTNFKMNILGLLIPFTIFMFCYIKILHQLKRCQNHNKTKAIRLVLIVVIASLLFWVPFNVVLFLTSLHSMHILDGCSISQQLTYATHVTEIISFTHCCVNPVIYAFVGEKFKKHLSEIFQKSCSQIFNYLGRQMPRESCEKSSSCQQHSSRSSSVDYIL

| Binder | EC50 |
| --- | --- |
| B1 | 98.5 nM |
| B2 | 241 nM |
| B3 | 508 nM |

molecular target: T1, human CCR8; assay: FACS on 293F-CCR8 cells
Description: The affinity of anti-CCR8 antibodies was evaluated by FACS. […] Affinity analyses were generally carried out as follows. […] The test antibodies were diluted with PBS/0.5 BSA (1:3 series dilution from 225 μg/mL to 0.00381 μg/mL). The transfected cells along with parent non-transfected cells were distributed into 96-well round-bottom polystyrene plates and incubated with the diluted antibodies on ice for 20-30 minutes. Next, the samples were washed with PBS/0.5 BSA and the cells were centrifuged. The pelleted cell samples were incubated with the second antibody of anti-mouse IgG-FITC-at 1:300 dilution in 100 μL PBS/0.5% BSA on ice for 30 minutes, and then washed with PBS/0.5% BSA, followed by pelleting the cells. The cell pellets were re-suspended in PBS/0.5% BSA for reading, and samples were analyzed using CYTOFLEX (Beckman).

| Binder | EC50 |
| --- | --- |
| B4 | 0.888 nM |
| B5 | 0.409 nM |
| B6 | 0.466 nM |
| B7 | 0.957 nM |
| B8 | 2.29 nM |
| B9 | 0.775 nM |
| B10 | 1.29 nM |
| B11 | 4.49 nM |
| B12 | 20.6 nM |
| B13 | 0.826 nM |
| B14 | 6.99 nM |
| B15 | 0.302 nM |
| B16 | 2.94 nM |
| B17 | 0.195 nM |
| B18 | 0.305 nM |
| B19 | 4.25 nM |

molecular target: T1, human CCR8; assay: cell-based or functional assay

| Binder | Tango IC50 |
| --- | --- |
| B4 | 0.67 nM |
| B5 | 0.27 nM |
| B6 | 1.43 nM |
| B7 | 0.27 nM |
| B8 | 0.51 nM |
| B9 | 0.47 nM |
| B10 | 0.45 nM |
| B11 | 2.61 nM |
| B12 | 0.83 nM |
| B13 | 1.23 nM |
| B14 | 2.01 nM |
| B15 | 0.33 nM |
| B16 | 1.82 nM |
| B17 | 1.86 nM |
| B18 | 1.87 nM |
| B19 | 4.08 nM |
